# Source: paper PMC9242856, “Structural basis of sodium-dependent bile salt uptake into the liver” (Nature, 2022)
# B1: Nanobody 87 (VHH)
# VHH: QVQLVESGGGLVQAGGSLRLSCAVSGRTTANYNMGWFRQAPGKEREFVAGIKWSSGSTYVADSAKGRFTISRDNAKNSVYLQMDSLKPEDTALYYCAANYYGVSWFLISPSSYDYWGQGTQVTVSS
# notes: llama (Lama glama) nanobody raised against NTCPCO; the nanobody chain of PDB 7PQG; Tags are those of the phage display vector pMESy4 as told for the library; also called Nb87; source: E. coli periplasm, purified (Ni-NTA, SEC)
# B2: Nanobody 91 (VHH)
# VHH: QVQLVESGGGLVEAGGSLRLSCAASTNLRSYAMAWFRQAPGKEREFVSFINWNYGNTRYADSVKGRFTISRDNAKITVYLQMNSLKPEDTAVYYCAAATIGRLAGIDSTTLYDYWGQGTQVTVSS
# Legend:
# [1] = biological target: T1, wild-type human Na+-taurocholate co-transporting polypeptide (NTCP) expressed on HEK 293F cells (human, UniProt Q14973); experiment: fluorescent ligand labelling of cells (plate reader); HEK 293F cells expressing NTCP constructs in PBS; labelled with 10 nM (wild-type NTCP) or 50 nM (NTCPEM) purified myr-preS1_48-GFP for 30 min; where tested, pre-incubation with 10 uM nanobody for 1.5 h; GFP fluorescence, excitation 470 nm, emission 508 nm; settings: one partner purified
# T1 construct: Na+-taurocholate co-transporting polypeptide (NTCP, SLC10A1), human, wild type; also called wild-type NTCP; SLC10A1; source: HEK 293F, transient transfection, on cells
# T1 sequence (Q14973 whole entry): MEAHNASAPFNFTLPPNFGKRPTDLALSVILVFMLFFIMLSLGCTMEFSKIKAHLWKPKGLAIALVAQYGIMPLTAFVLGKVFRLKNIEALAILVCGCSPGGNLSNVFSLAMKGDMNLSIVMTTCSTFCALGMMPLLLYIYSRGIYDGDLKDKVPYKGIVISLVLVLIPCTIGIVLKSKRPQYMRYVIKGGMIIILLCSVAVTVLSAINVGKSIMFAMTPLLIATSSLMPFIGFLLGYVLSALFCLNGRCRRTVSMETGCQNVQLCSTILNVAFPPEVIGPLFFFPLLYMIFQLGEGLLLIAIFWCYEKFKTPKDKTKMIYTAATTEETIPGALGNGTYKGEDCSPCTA
# [2] = biological target: NTCPEM expressed on HEK 293F cells (human) (UniProt Q14973)
# Sequence of NTCPEM expressed on HEK 293F cells (human) (Q14973 other isoform, or with tags, fused parts or gaps, change not shown): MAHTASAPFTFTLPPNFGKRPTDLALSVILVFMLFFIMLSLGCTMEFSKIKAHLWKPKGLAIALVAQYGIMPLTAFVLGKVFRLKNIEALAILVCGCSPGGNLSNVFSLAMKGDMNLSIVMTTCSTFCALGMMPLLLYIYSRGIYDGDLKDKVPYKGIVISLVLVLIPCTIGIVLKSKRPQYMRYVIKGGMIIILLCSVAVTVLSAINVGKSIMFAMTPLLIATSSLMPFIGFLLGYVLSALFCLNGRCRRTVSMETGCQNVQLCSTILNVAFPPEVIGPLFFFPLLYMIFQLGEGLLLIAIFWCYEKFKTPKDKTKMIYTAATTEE
Binder,binding result [1],IC50 of inhibition of Na+-induced uptake of the fluorescent substrate tauro-nor-THCA-24-DBD by cells expressing NTCPEM [2]
B1,binds,180 nM
B2,,34 nM
